Where a chain is given by its changes, count along the chain named. Numbers in names are those of the source.
T1: cynomolgus TREM-1 on cells (TE426.27 reporter cell line) (cynomolgus monkey)
T1 chain: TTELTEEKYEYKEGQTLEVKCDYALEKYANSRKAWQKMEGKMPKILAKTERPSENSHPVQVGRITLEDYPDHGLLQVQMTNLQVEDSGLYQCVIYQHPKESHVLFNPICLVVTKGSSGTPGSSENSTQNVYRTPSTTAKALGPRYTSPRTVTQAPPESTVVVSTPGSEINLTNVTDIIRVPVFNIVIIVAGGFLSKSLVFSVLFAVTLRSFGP

T2: cynomolgus TREM-1-Fc (cynomolgus monkey)
T2 construct: also called cTREM-1
T2 chain: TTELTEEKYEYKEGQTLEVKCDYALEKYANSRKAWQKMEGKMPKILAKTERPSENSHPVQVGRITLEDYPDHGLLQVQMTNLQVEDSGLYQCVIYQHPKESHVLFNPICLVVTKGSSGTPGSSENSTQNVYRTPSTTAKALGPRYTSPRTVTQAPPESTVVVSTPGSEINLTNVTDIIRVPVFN

B1: mAb 0170 (humanised TREM-1 antibody, mAb 0170 of WO2013/120553) (antibody, V domains shown)
VH: EVQLVESGGGLVQPGGSLKLSCAASGFTFSTYAMHWVRQASGKGLEWVGRIRTKSSNYATYYAASVKGRFTISRDDSKNTAYLQMNSLKTEDTAVYYCTRDMGIRRQFAYWGQGTLVTVSS
VL: DIVLTQSPDSLAVSLGERATINCRASESVDTFDYSFLHWYQQKPGQPPKLLIYRASNLESGVPDRFSGSGSGTDFTLTISSLQAEDVAVYYCQQSNEDPYTFGQGTKLEIKR
notes: also called mAb 170
B2: mAb 0330 (mAb 0170 variant, light chain F32A, E27Q, E97Q) (antibody, human IgG4 S228P, kappa, V domains shown)
VH: B1 VH
VL: B1 VL with E27Q, F32A, E97Q
B3: mAb 0318 (mAb 0170 variant, light chain E27Q, E97Q) (antibody, human IgG4 S228P, kappa, V domains shown)
VH: B1 VH
VL: B1 VL with E27Q, E97Q
notes: Charge patch mutations
B4: mAb 0319 (mAb 0170 variant, light chain E97S) (antibody, human IgG4 S228P, kappa, V domains shown)
VH: B1 VH
VL: B1 VL with E97S
notes: Charge patch mutation
B5: mAb 0317 (mAb 0170 variant, light chain E27Q, E97S) (antibody, human IgG4 S228P, kappa, V domains shown)
VH: B1 VH
VL: B1 VL with E27Q, E97S
notes: Charge patch mutations
B6: mAb 0322 (mAb 0170 variant, light chain F32A) (antibody, human IgG4 S228P, kappa, V domains shown)
VH: B1 VH
VL: B1 VL with F32A
B7: Fab region of mAb 0170 (Fab, V domains shown)
VH: B1 VH
VL: B1 VL
notes: Crystallised alone; packs as Fab-Fab dimers; also called Fab 0170; mAb 170 Fab region
B8: mAb 0320 (mAb 0170 variant, light chain E97Q) (antibody, human IgG4 S228P, kappa, V domains shown)
VH: B1 VH
VL: B1 VL with E97Q
notes: Charge patch mutation
B9: mAb 0333 (mAb 0170 variant, heavy chain A59Y, light chain F32A, E27Q, E97Q) (antibody, human IgG4 S228P, kappa, V domains shown)
VH: B1 VH with A59Y
VL: B1 VL with E27Q, F32A, E97Q
B10: mAb 0325 (mAb 0170 variant, heavy chain N57S) (antibody, human IgG4 S228P, kappa, V domains shown)
VH: B1 VH with N57S
VL: B1 VL
B11: mAb 0323 (mAb 0170 variant, light chain F32S) (antibody, human IgG4 S228P, kappa, V domains shown)
VH: B1 VH
VL: B1 VL with F32S
B12: mAb 0321 (mAb 0170 variant, light chain E27Q) (antibody, human IgG4 S228P, kappa, V domains shown)
VH: B1 VH
VL: B1 VL with E27Q
notes: Charge patch mutation
B13: mAb 0324 (mAb 0170 variant, heavy chain A59Y) (antibody, human IgG4 S228P, kappa, V domains shown)
VH: B1 VH with A59Y
VL: B1 VL
B14: mAb 0332 (mAb 0170 variant, heavy chain A59Y, light chain E27Q, E97Q) (antibody, human IgG4 S228P, kappa, V domains shown)
VH: B1 VH with A59Y
VL: B1 VL with E27Q, E97Q

Biological target: T1, cynomolgus TREM-1 on cells (TE426.27 …)
Assay: cell-based or functional assay

IC50: inhibition of luminescence of TE426.27 cynomolgus TREM-1 reporter cells stimulated with PGN and recombinant PGLYRP1 | Binder
6 nM | B1
10.7 nM | B2
5.6 nM | B3
17.7 nM | B4
9.5 nM | B5
5.9 nM | B6

Biological target: the molecule itself
Assay: X-ray crystal structure of the Fab region of mAb 0170 (self-interaction in the crystal)
Experimental: The crystal was transferred to a drop consisting of 2 μL 35% (w/v) PEG3350, 200 mM K₂HPO₄ and mounted in a 0.2 mm diameter litholoop (Molecular Dimensions Limited) and flash-cooled in liquid nitrogen.
Data were collected to a resolution of 2.40 Å. […] The search models were structures of the heavy chain from the pdb entry 1AD0.pdb (85% identity) and the light chain from the pdb entry 2QRG (94% identity).

Binder | binding result
B7 | binds

Biological target: T2, cynomolgus TREM-1-Fc
Assay: SPR (ProteOn), antibody captured via anti-Fc, TREM-1-Fc as analyte, 1:1 Langmuir fit, 25 C
Experimental: Binding studies were performed on a ProteOn Analyzer (BioRad) that measures molecular interactions in real time through surface plasmon resonance. Experiments were run at 25° C. and the samples were stored at 15° C. in the sample compartment. The signal (RU, response units) reported by the ProteOn is directly correlated to the mass on the individual sensor chip surfaces in the six parallel flow cells. Anti-human Fc monoclonal or anti-murine Fc polyclonal antibody from Biacore human or mouse Fc capture kits were immobilized in horizontal direction onto flow cells of a GLM sensor chip according to the manufacturer's instructions. The final immobilization level of capture antibody was approximately 2600-6000 RU in each experiment. The capture of purified monoclonal mouse or recombinantly expressed anti-hTREM-1 antibodies was conducted by diluting the antibodies to 5-10 nM into running buffer (10 mM Hepes 0.15 M NaCl, 5 mM EDTA, 0.05% surfactant P20, pH 7.4) followed by injection in vertical direction at 30 μL/min for 60 sec, creating reference interspots adjacent to all flow cells with only anti-Fc antibody immobilized. […] Binding of hTREM-1 or cTREM-1 proteins was conducted by injecting analyte (antigen) over all flow cells in horizontal direction to allow for comparative analyses of binding to different captured anti-TREM-1 antibodies relative to binding to the reference interspot. hTREM-1 or cTREM-1 proteins were diluted serially 1:3 to 1.2-100 nM or into running buffer, injected at 100 μL/min for 250 s and allowed to dissociate for 600 s. The GLM surface was regenerated after each injection cycle of analyte via two 18 s injections of 10 mM Glycine, pH 1.7 and 50 mM NaOH at 100 μL/min. This regeneration step removed the anti-TREM-1 antibody and any bound TREM-1 protein from the immobilized capture antibody surface and allowed for the subsequent binding of the next interaction sample pair.

Kd | Binder
2 nM | B1
3 nM | B8
0.3 nM | B9
0.1 nM | B2
2 nM | B3
2 nM | B4
1 nM | B10
3 nM | B5
0.6 nM | B11
0.1 nM | B6
2 nM | B12
4 nM | B13
4 nM | B14

Source: patent US20190185560A1 (Novo Nordisk, published 2019)
